Test results published in paper PMC2854692.

Biological target: Glucagon receptor (UniProt P47871)
Sequence of UniProt P47871 (P47871 26-477): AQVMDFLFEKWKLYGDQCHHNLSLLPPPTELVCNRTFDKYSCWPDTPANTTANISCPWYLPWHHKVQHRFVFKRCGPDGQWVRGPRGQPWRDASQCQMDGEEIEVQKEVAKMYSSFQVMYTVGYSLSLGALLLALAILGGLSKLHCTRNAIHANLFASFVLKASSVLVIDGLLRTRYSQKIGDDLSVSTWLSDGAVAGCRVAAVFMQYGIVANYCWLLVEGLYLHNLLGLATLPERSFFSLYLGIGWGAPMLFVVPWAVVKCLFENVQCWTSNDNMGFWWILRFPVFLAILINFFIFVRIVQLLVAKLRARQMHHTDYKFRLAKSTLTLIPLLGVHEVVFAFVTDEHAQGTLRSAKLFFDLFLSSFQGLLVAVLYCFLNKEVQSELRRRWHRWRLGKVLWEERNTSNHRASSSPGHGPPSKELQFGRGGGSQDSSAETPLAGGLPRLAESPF

- potency in the Ca2+-flux assay (FLIPR) on a transfected GcgR cell line, relative to unmodified glucagon, molar basis (% of the potency of unmodified glucagon): 15
B1: Gcg-XTEN (ligand)
chain: HSQGTFTSDYSKYLDSRRAQDFVQWLMNTGGTSTPESGSASPGTSPSGESSTAPGTSPSGESSTAPGSTSSTAESPGPGSTSESPSGTAPGSTSSTAESPGPGTSPSGESSTAPGTSTPESGSASPGSTSSTAESPGPGTSPSGESSTAPGTSPSGESSTAPGTSPSGESSTAPG
